Data on one molecule can be found in paper PMC5261137 (Proteins, 2016).

The target in the test is T1, SipD^C244S (residues 39-343 C244S) (Salmonella, UniProt Q56026 39-343, C244S).
T1 sequence: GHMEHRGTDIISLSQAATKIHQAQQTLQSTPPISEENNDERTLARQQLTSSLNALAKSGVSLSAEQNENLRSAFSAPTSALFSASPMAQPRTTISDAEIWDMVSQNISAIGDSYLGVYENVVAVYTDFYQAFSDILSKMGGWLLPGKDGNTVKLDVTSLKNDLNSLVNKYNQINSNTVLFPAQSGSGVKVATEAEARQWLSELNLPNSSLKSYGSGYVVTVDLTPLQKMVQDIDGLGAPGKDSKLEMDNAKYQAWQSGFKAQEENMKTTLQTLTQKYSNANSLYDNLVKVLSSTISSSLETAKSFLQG
The test is described as follows: NMR titration.

B1: SipB^11-232 (domain or fragment)
chain: SGYTQNPRLAEAAFEGVRKNTDFLKAADKAFKDVVATKAGDLKAGTKSGESAINTVGLKPPTDAAREKLSSEGQLTLLLGKLMTLLGDVSLSQLESRLAVWQAMIESQKEMGIQVSKEFQTALGEAQEATDLYEASIKKTDTAKSVYDAATKKLTQAQNKLQSLDPADPGYAQAEAAVEQAGKEATEAKEALDKATDATVKAGTDAKAKAEKADNILTKFQG
Regarding B1, the binding result was “binds”.
